# Test results taken from the RNAGym collection of RNA variant scans (doi:10.1093/nar/gkz1192).
# B1: CPEB3 Ribozyme (parent)
# chain: UAACAGGGGGCCACAGCAGAAGCGUUCACGUCGCAGCCCCUGUCAGAUUCUGGUGAAUCUGCGAAUUCUGCUGUAUAUCUC
# Variants of: B1
# Experiment: self-cleavage, relative activity (ratio to wild type); higher = more cleavage; in vitro, sequencing
# How it was run: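 Relative activity compares each variant's cleaved/total read fraction with that of the unmutated ribozyme. To get these fractions, barcoded CPEB3 ribozyme libraries from rounds of error-prone PCR were transcribed with T7 RNA polymerase for 5 hours at 37°C and then given 15 min of DNase I treatment before EDTA was added. The RNAs were reverse transcribed with template switching and sequenced on Illumina, and DNA sequencing linked barcodes to variants. A minimum of 5 reads applied, and three batches were averaged.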
row,Variant,self-cleavage
1,UAACAGGGGGCCACAGCAGAUGCAUUCACGUCGCAGCCCCUGUCAGAUUCUGGUGAAUCUGCGAAUUCUGCUGUAUAUCUC [A21U G24A],0.33
2,UAACAGGGGGCCACAGCAGAUGCGUUCACGUCGCAGCCCCUCUCAGAUUCUGGUGAAUCUGCGAAUUCUGCUGUAUAUCUC [A21U G42C],0.29
3,UAACAGGGGGCCACAGCAGAUGCGUUCACGUCGCAGCCCCUGUCAGAUUCUGGUGAAUCUGCGAAUCCUGCUGUAUAUCUC [A21U U67C],0.2
4,UAACAGGGGGCCACAGCAGAUGCGUUCACGUCGCAGCCCCUGUCAGAUUCUGGUGAAUCUGCGAAUACUGCUGUAUAUCUC [A21U U67A],0.19
5,UAACAGGGGGCCACAGCAGAUGCGUUCACGUCGCAGCCCCUGUCAGACUCUGGUGAAUCUGCGAAUUCUGCUGUAUAUCUC [A21U U48C],0.27
6,UAACAGGGGGCCACAGCAGAUGCGUUCACAUCGCAGCCCCUGUCAGAUUCUGGUGAAUCUGCGAAUUCUGCUGUAUAUCUC [A21U G30A],0.1
7,UAACAGGGGGCCACAGCAGAUACGUUCACGUCGCAGCCCCUGUCAGAUUCUGGUGAAUCUGCGAAUUCUGCUGUAUAUCUC [A21U G22A],0.29
8,UAACAGGGGGCCACAGCAGAAACGUUCACGUCGCUGCCCCUGUCAGAUUCUGGUGAAUCUGCGAAUUCUGCUGUAUAUCUC [G22A A35U],0.19
9,UAACAGGGGGCCACAGCAGAAACGUUCACGUCGCGGCCCCUGUCAGAUUCUGGUGAAUCUGCGAAUUCUGCUGUAUAUCUC [G22A A35G],0.68
10,UAACAGGGGGCCACAGCAGAUGCGUUCACGUCGCAGCCCCUGUCAGAUUCUGGUGAAUCUGCGAAUUCUGCUGUAUAUCUA [A21U C81A],0.45
11,UAACAGGGGGCCACAGCAGAUGCGUUCACGUCGCAGCCCCUGUCAGAUUCUGGUGAAUCUGCGAAUUCUGCUGUAUAUCUU [A21U C81U],0.29
12,UAACAGGGGGCCACAGCAGAUGCGUUCACGUCGCAGCCCCUGUCAGAUUCUGGUGAAUCUGCGAAUUCUGCAGUAUAUCUC [A21U U72A],0.26
13,UAACAGGGGGCCACAGCAGAUGCGUUCACGUCGCAGCCCCUGUCAGAUUCUGGUGAAUCUGCGAAUUCUGCCGUAUAUCUC [A21U U72C],0.53
14,UAACAGGGGGCCACAGCAGAUGCGUUCACGUCGCAGCCCCUGUCAGAUUCUGGUGAAUCUGCGAAUUCUGCGGUAUAUCUC [A21U U72G],0.17
15,UAACAGGGGGCCACAGCAGAUGCGUUCACGUCGCAGCCCCUGUCAGAUUUUGGUGAAUCUGCGAAUUCUGCUGUAUAUCUC [A21U C50U],0.4
16,UAACAGGGGGCCACAGCAGAUGCGUUCACGUCGCAGCCCCUGUCAGAUUAUGGUGAAUCUGCGAAUUCUGCUGUAUAUCUC [A21U C50A],0.18
17,UAACAGGGGGCCACAGCAGAUGCGUUCACGUCGCAGCCCCCGUCAGAUUCUGGUGAAUCUGCGAAUUCUGCUGUAUAUCUC [A21U U41C],0.34
18,UAACAGGGGGCCACAGCAGAUGCGUUCACGUCGCAGCCCCAGUCAGAUUCUGGUGAAUCUGCGAAUUCUGCUGUAUAUCUC [A21U U41A],0.26
19,UAACAGGGGGCCACAGCAGAUGCGUUCACGUCGCAGCCCCUGUCAGAUUCUGGUGAAUCUGCGAAUUCUGCUAUAUAUCUC [A21U G73A],0.88
20,UAACAGGGGGCCACAGCAGAUGCGUUCACGUCGCAGCCCCUGUCAGAUUCUGGUGAAUCUACGAAUUCUGCUGUAUAUCUC [A21U G61A],0.34
21,UAACAGGGGGCCACAGCAGAUGCGUUCACGGCGCAGCCCCUGUCAGAUUCUGGUGAAUCUGCGAAUUCUGCUGUAUAUCUC [A21U U31G],0.13
22,UAACAGGGGGCCACAGCAGAUGCGUUCACGACGCAGCCCCUGUCAGAUUCUGGUGAAUCUGCGAAUUCUGCUGUAUAUCUC [A21U U31A],0.13
23,UAACAGGGGGCCACAGCAGAUGCGUUCACGCCGCAGCCCCUGUCAGAUUCUGGUGAAUCUGCGAAUUCUGCUGUAUAUCUC [A21U U31C],0.3

row,Variant,self-cleavage
1,UAACAGGGGGCCACAGCAGAUGCGUUCACGUCGCAGCCCCUGUCAGAUUCUGGUGAAUCUGCGAAUUCUGCUGAAUAUCUC [A21U U74A],0.76
2,UAACAGGGGGCCACAGCAGAUGCGUUCACGUCGCAGCCCCUGUCAGAUUCUGGUGAAUCUGCGAAUUCUGCUGCAUAUCUC [A21U U74C],0.76
3,UAACAGGGGGCCACAGCAGAUGCGUUCACGUCGCAGCCCCUGUCAGAUUCUGGUGAAUCUGCCAAUUCUGCUGUAUAUCUC [A21U G63C],0.28
4,UAACAGGGGGCCACAGCAGAUGCGUUCACGUCGCAGCCCCUGUCAGAUUCUGGUGAAUCUGCUAAUUCUGCUGUAUAUCUC [A21U G63U],0.28
5,UAACAGGGGGCCACAGCAGAUGCGUUCACGUCGCAGCCCCUGUCAGAUUCUGGUGAAUCUGCAAAUUCUGCUGUAUAUCUC [A21U G63A],0.5
6,UAACAGGGGGCCACAGCAGAUGCGUUCACGUCGCAGCCCCUGUCAGAUUCUAGUGAAUCUGCGAAUUCUGCUGUAUAUCUC [A21U G52A],0.33
7,UAACAGGGGGCCACAGCAGAUGCGUUCACGUCGCAGCCCCUGUCAGAUUCUGGUGAAUCUGUGAAUUCUGCUGUAUAUCUC [A21U C62U],0.01
8,UAACAGGGGGCCACAGCAGAUGCGUUCACGUCGCAGCCCCUGUCAGAUUCUGGCGAAUCUGCGAAUUCUGCUGUAUAUCUC [A21U U54C],0.29
9,UAACAGGGGGCCACAGCAGAUGCGUUCACGUCGCAGCCCCUGUCAGAUUCUGGGGAAUCUGCGAAUUCUGCUGUAUAUCUC [A21U U54G],0.26
10,UAACAGGGGGCCACAGCAGAUGCGUUCACGUCGCAGCCCCUGUCAGAUUCUGGAGAAUCUGCGAAUUCUGCUGUAUAUCUC [A21U U54A],0.29
11,UAACAGGGGGCCACAGCAGAUGCGUUCACGUCGCAGCCCCUGUCAGAUUCUGGUGAAUCCGCGAAUUCUGCUGUAUAUCUC [A21U U60C],0.2
12,UAACAGGGGGCCACAGCAGAUGCGUUCACGUCGCAGCCCCUGUCAGAUUCUGGUGAAUCAGCGAAUUCUGCUGUAUAUCUC [A21U U60A],0.3
13,UAACAGGGGGCCACAGCAGAUGCGUUCACGUCGCAGCCCCUGUCAGAUUCUGGUGAAUCGGCGAAUUCUGCUGUAUAUCUC [A21U U60G],0.17
14,UAACAGGGGGCCACAGCAGAUGCGUUCACGUCGCAGCCCCUGUCAGAUUCUGGUGAAUCUGCGAAUUCUGGUGUAUAUCUC [A21U C71G],0.09
15,UAACAGGGGGCCACAGCAGAUGCGUUCACGUCGCAGCCCCUGUCAGAUUCUGGUGAAUCUGCGAAUUCUGUUGUAUAUCUC [A21U C71U],0.16
16,UAACAGGGGGCCACAGCAGAUGCGUUCACGUCGCAGCCCCUGUCAGAUUCUGGUGAAUCUGCGAAUUCUCCUGUAUAUCUC [A21U G70C],0.05
17,UAACAGGGGGCCACAGCAGAAACGUUCACGUCGCAGCCCCUGUCAGAUUCUGGUGAAUCUGCGAAUUCUGCUGUAUAUCUC [G22A],0.29
18,UAACAGGGGGCCACAGCAGAUGCGUUCACGUCGCAGCCCCUGUCAGAUUCUGGUGAAACUGCGAAUUCUGCUGUAUAUCUC [A21U U58A],0.37
19,UAACAGGGGGCCACAGCAGAUGCGUUCACGUCGCAGCCCCUGUCAGAUUCUGGUGAACCUGCGAAUUCUGCUGUAUAUCUC [A21U U58C],0.12
20,UAACAGGGGGCCACAGCAGAUGCGAUCACGUCGCAGCCCCUGUCAGAUUCUGGUGAAUCUGCGAAUUCUGCUGUAUAUCUC [A21U U25A],0.22
21,UAACAGGGGGCCACAGCAGAUGCGCUCACGUCGCAGCCCCUGUCAGAUUCUGGUGAAUCUGCGAAUUCUGCUGUAUAUCUC [A21U U25C],0.29
22,UAACAGGGGGCCACAGCAGAUGCGUUCACGUCGCAGCCCCUGUCAGAUUCAGGUGAAUCUGCGAAUUCUGCUGUAUAUCUC [A21U U51A],0.43
23,UAACAGGGGGCCACAGCAGAUGCGUUCACGUCGCAGCCCCUGUCAGAUUCCGGUGAAUCUGCGAAUUCUGCUGUAUAUCUC [A21U U51C],0.34

row,Variant,self-cleavage
1,UAACAGGGGGCCACAGCAGAAACGUUCGCGUCGCAGCCCCUGUCAGAUUCUGGUGAAUCUGCGAAUUCUGCUGUAUAUCUC [G22A A28G],0.4
2,UAACAGGGGGCCACAGCAGAAACGUUCUCGUCGCAGCCCCUGUCAGAUUCUGGUGAAUCUGCGAAUUCUGCUGUAUAUCUC [G22A A28U],0.12
3,UAACAGGGGGCCACAGCAGAAACGUUCCCGUCGCAGCCCCUGUCAGAUUCUGGUGAAUCUGCGAAUUCUGCUGUAUAUCUC [G22A A28C],0.21
4,UAACAGGGGGCCACAGCAGAUGCGUUCACGUCACAGCCCCUGUCAGAUUCUGGUGAAUCUGCGAAUUCUGCUGUAUAUCUC [A21U G33A],0.09
5,UAACAGGGGGCCACAGCAGAUGCGUACACGUCGCAGCCCCUGUCAGAUUCUGGUGAAUCUGCGAAUUCUGCUGUAUAUCUC [A21U U26A],0.35
6,UAACAGGGGGCCACAGCAGAUGCGUCCACGUCGCAGCCCCUGUCAGAUUCUGGUGAAUCUGCGAAUUCUGCUGUAUAUCUC [A21U U26C],0.29
7,UAACAGGGGGCCACAGCAGAUGCGUUCACGUCGCAGCCCCUGUCAGAUCCUGGUGAAUCUGCGAAUUCUGCUGUAUAUCUC [A21U U49C],0.22
8,UAACAGGGGGCCACAGCAGAAACGUUCACGUCGCAGCCCCUGUCGGAUUCUGGUGAAUCUGCGAAUUCUGCUGUAUAUCUC [G22A A45G],0.14
9,UAACAGGGGGCCACAGCAGAUGCGUUCACGUCGCAGCCCCUGUCAGAUUCUGGUGAAUCUGCGAAAUCUGCUGUAUAUCUC [A21U U66A],1.12
10,UAACAGGGGGCCACAGCAGAUGCGUUCACGUCGCAGCCCCUGUCAGAUUCUGGUGAAUCUGCGAACUCUGCUGUAUAUCUC [A21U U66C],0.33
11,UAACAGGGGGCCACAGCAGAUGCGUUCACGUCGCAGCCCCUGUCAGAUUCUGGUGAAUCUGCGAAUUUUGCUGUAUAUCUC [A21U C68U],0.44
12,UAACAGGGGGCCACAGCAGAUGCGUUCACGUCGCAGCCCCUGUCAGAUUCUGGUGAAUCUGCGAAUUAUGCUGUAUAUCUC [A21U C68A],0.32
13,UAACAGGGGGCCACAGCAGAUGCGUUCACGUCGCAGCCCCUGCCAGAUUCUGGUGAAUCUGCGAAUUCUGCUGUAUAUCUC [A21U U43C],0.26
14,UAACAGGGGGCCACAGCAGAUGCGUUCACGUCGCAGCCCCUGACAGAUUCUGGUGAAUCUGCGAAUUCUGCUGUAUAUCUC [A21U U43A],0.5
15,UAACAGGGGGCCACAGCAGAUGCGUUCACGUCGCAGCCCCUGUCAGAUUCUGGUGAAUCUGCGAAUUCUGCUGUAAAUCUC [A21U U76A],0.45
16,UAACAGGGGGCCACAGCAGAUGCGUUCACGUCGCAGCCCCUGUCAGAUUCUGGUGAAUCUGCGAAUUCUGCUGUACAUCUC [A21U U76C],0.27
17,UAACAGGGGGCCACAGCAGAUGCGUUCACGUCGCAGCCCCUGUCAGAUUCUGGUGAAUCUGCGAAUUCUGCUGUAUAACUC [A21U U78A],0.38
18,UAACAGGGGGCCACAGCAGAUGCGUUCACGUCGCAGCCCCUGUCAGAUUCUGGUGAAUCUGCGAAUUCUGCUGUAUACCUC [A21U U78C],0.25
19,UAACAGGGGGCCACAGCAGAUGCGUUCACGUCGCAGCCCCUGUCAGAUUCUGAUGAAUCUGCGAAUUCUGCUGUAUAUCUC [A21U G53A],0.29
20,UAACAGGGGGCCACAGCAGAUGCGUUCACGUCGCAGCCCCUGUCAGAUUCUGGUGAAUCUGCGAAUUCCGCUGUAUAUCUC [A21U U69C],0.26
21,UAACAGGGGGCCACAGCAGAUGCGUUCACGUCGCAGCCCCUGUCAGAUUCUGGUGAAUCUGCGAAUUCUGCUGUAUAUCAC [A21U U80A],0.44
22,UAACAGGGGGCCACAGCAGAUGCGUUCACGUCGCAGCCCCUGUCAGAUUCUGGUGAAUCUGCGAAUUCUGCUGUAUAUCCC [A21U U80C],0.53
